Molecular target: T1, β subunit of the plastid-encoded RNA polymerase (SaRpoB) (Sinapis alba (endogenous in cotyledon …, UniProt P46818 1-1078))
T1 construct: RNA polymerase β subunit, product of the plastid gene rpoB, Sinapis alba
T1 sequence (looked up): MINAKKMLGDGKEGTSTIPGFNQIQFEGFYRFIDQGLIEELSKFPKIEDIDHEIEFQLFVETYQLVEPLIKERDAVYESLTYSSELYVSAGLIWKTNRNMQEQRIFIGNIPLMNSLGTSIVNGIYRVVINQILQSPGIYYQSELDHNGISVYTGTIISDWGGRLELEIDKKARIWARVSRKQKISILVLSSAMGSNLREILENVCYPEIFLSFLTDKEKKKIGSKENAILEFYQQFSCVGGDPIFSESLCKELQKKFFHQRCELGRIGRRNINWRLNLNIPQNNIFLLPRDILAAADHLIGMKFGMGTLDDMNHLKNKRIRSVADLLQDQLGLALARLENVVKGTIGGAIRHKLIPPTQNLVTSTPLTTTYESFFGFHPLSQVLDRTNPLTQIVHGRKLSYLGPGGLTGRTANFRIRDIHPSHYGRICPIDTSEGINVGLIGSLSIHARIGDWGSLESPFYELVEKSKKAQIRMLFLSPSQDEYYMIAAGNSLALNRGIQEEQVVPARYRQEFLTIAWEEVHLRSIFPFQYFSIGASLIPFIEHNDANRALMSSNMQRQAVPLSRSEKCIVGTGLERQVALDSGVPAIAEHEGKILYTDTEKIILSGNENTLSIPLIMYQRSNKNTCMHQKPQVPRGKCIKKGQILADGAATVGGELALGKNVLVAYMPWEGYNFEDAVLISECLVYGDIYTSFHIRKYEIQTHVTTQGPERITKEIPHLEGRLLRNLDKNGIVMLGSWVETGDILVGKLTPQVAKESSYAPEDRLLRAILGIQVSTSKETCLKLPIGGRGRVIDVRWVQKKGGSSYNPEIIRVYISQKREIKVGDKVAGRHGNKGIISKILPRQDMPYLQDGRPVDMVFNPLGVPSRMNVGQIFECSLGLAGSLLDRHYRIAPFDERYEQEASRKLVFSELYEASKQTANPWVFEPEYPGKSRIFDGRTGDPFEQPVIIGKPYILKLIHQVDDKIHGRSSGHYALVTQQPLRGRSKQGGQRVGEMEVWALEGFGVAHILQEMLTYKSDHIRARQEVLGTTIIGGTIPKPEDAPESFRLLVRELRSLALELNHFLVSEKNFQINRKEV
Test: co-purification of the native complex with mass spectrometry; chloroplast lysate of S. alba cotyledons; heparin resin (elution 1.2 M (NH4)2SO4), 35-15% glycerol gradient, Q-Sepharose (0-1 M NaCl), 100-kDa cutoff concentration; three independent preparations; label-free MS, iBAQ values
Settings: partners not purified

B1: α subunit of the plastid-encoded RNA polymerase (SaRpoA) (natural protein, UniProt Q9XQN8 1-327, looked up)
chain: MVREKVKVSTRTLQWKCVESRRDSKRLYYGRFILSPLMKGQADTIGIAMARALLGEIEGTCITRAKSENIPHDYSNIVGIQESVHEILMNLNEIVLKSNLYGTRNPFICVQGPGYITARDIILPPSVEIVDNTQHIATLTEPINLCIGLKIERNRGYSLKMSNNFEDRSYPIDAVFMPVQNANHSIHSYGNGNEKQEILFIEIWTNGSLTPKEALYEASRNLINLFIPFLHVEEETFYLENNQHQVTLPVFPFHNKLVNLRQKKKELAFQYIFIDQLELPPRIYNCLKKSNIHTLLDLLNNSQEDLIKMEHFHIEDVKKLLDILEKK
notes: RNA polymerase α subunit, product of the plastid gene rpoA, Sinapis alba
stoichiometry N: ~2
